The nature of this data set: soluble on expression in E. coli; label from the status in PepcDB or PDB records.
In the case of “MAHHHHHHMKNNEEWEKEKIYDRQLRLWGVKAQNRMMKSNVLILGLSGINIEICKNLILNGINITIIDDNIVDEEMVENIFFLNESDIQNYACVAIFKELKSINKMINMKAYIGRMDTSNDSIIIESELVQNADGEISNTKMGKTFSVEKYISNYTSVCVSCEDYPLYKLVKMNEFCHEKNIGFFAAMCNGKFAFLFSDFGNHVIEESYYKAKEGQRKGETGANKAGELQKEGETGANNGGIPIQYCTLSHFLKVPFENFDKKTNKIIFPMFALILFELNKQLNKSDKSIDEQEFSTFCDQFSLAKCKESLGEITKTYRVAFSPSCSIMGGVTSQEIRKFVSKQHESIPNFCVFDMNQSVVCTSMIS”, the “soluble on expression in E. coli” value is recorded as “not soluble”.

For the sequence “MSLNQFTTDLVQALVQKENVTEIFRSHLENAVNTLLASELTAFLDYEKYDRIGFNTGNSRNGSYERTLHTEFGELHLVIPRDRNGDFKQQTVAPYKRSNDTLEAFVIHMFQKGVTTAEIAHLMERMYGHHYTPQTISNMTKVMSEQVEAFRDRTLCARYACVYLDATYIALKRDTVSKEAVYIAVGIREDGSKEVLGYTIAPNESAFVWKELLEDIKSRGVEEILLFISDGLKGISDSVFSIYPASSYQTCCVHLSRTIAHKVRVSDRAEICEDFKSVYRAESLEMGQQALHSFIEKWKSKYPKVTKPLLNNSYLFTFYSFPKSIWRSIYSTNLIESFNKQIKKYSKRKEQFPNEESLERFLVSQFDQYNQRFATRCHIGFDQARAELQMMFKTNEGHHHHHH”, the “soluble on expression in E. coli” value is on record as “soluble”.

With “MFCRDTLCDTTPAVTDFLNGLSAVASKSPCSGDGALSDGHNAQSRMPVMGHVFLTGLLCVSRLARKRQLLLKRLKQSALPPRASATPSMEDVAVQSPSAAADAGDTVFVRLVLSLLGHTLMKQATTAPCAASPGDNASPQAAPLPWWPATSAPSENAEDVVYDVQCVGNEDDHAGDNVGFSEEHAPGVGHMLFTASTSVHCRIVLRSHPVAIFSPAMMSELALDAEQRASVASRTWCHGGAPGTDSSEAVDAEADAGSCVARALEVFDACVRDHEEACLRQIAEIVGSLQRLLEKPATEVQSPGGLASTGSPSDSANASASRLGGCASPLHEWTIDVPIYGVVLYIEDTHATRLERVRRLTTPLLQAATGCGNAAGGPLGPVTQVLSKLHTWCAAWTAASSTSSTSPGASSCTPGIRTITLMHVTELRQLVDSHLKNSQTAAARLPGPANPATVGYDVSQALAAPACVVHCQLGVSRSPSVVMLFYMDVLAPQLRAAASAAEAPLNIFHGLLNALVQARHRVRPNVCFSAQLLSLWRRLMQLDTPASPTRVV”, the “soluble on expression in E. coli” value was “not soluble”.

Consider “MSLALDLLLLPTWLVPVEPAGVVLREHGLGIRDGHIVFIGPRAEALKYRATEIRELPDTLLTPGLINAHGHAAMTLFRGLADDLLLMTWLEKHIWPAEAKWVDEAFVRDGTDLAIAEQIKGGITCFSDMYFFPKVASERVHNSGMRAQVAIPILDFPIPGAQNADEAIRQGVELFGDLKHHPRINITFGPHAPYTVGDENLEKIRIIAEELDAAIHMHVHETAHEVQQSVEQHGERPLARLARLGLLGPRFQAVHMTQISDDDLALLVETNTSVIHCPESNLKLASGFCPVERLWQAGVNVAVGTDGAASNNDLDLLGETRTAALLAKAVAGSATALDAHRALRMATLNGARAMGLESQVGSLEIGKAADLTAFDLSGLAQQPIYDPVSQLIYATGRDCVKHVWVAGKQLLDDRCLTRLDEHQLGATARDWARRISGHEGHHHHHH”, for which the “soluble on expression in E. coli” value is “soluble”.

As to “EMKVLVPDTSVIVDGRLTQYLERLKEKVKVVVPEAVVAEIEHQANAGKAIGHTGLEELKKLREIANEGKILLEFYGERPDLWQIRRAKSGEIDNMVREVARELNGVLVTGDQIQRDIAIAKGIDVIYLEAKREPRMRLEDFFDEE”, the “soluble on expression in E. coli” value was “not soluble”.

Turning to “GSVPVILEVAGIGKYAISIGGERQEGLTEEMVTQLSRQEFDKDNNTLFLVGGAKEVPYEEVIKALNLLHLAGIK”, the “soluble on expression in E. coli” value was “soluble”.

For “MNPESRVIRKVLALQNDEKIFSGERRVLIAFSGGVDSVVLTDVLLKLKNYFSLKEVALAHFNHMLRESAERDEEFCKEFAKERNMKIFVGKEDVRAFAKENRMSLEEAGRFLRYKFLKEILESEGFDCIATAHHLNDLLETSLLFFTRGTGLDGLIGFLPKEEVIRRPLYYVKRSEIEEYAKFKGLRWVEDETNYEVSIPRNRIRHRVIPELKRINENLEDTFLKMVKVLRAEREFLEEEAQKLYKEVKKGNCLDVKKLKEKPLALQRRVIRKFIGEKDYEKVELVRSLLEKGGEVNLGKGKVLKRKERWLCFSPEV”, the “soluble on expression in E. coli” value is recorded as “soluble”.

With “VKKNVSGEPYVEGSGSNDVRTGAPIDEIDRILLDQLSRDARTPNNALAALAGIAPSTCLGRVRSLIDRGVIRGFHADIDPATLGRDLQAMIAVRVQANARQHLGQLAEQLATLDEVLNVYFIAGADDYLIHVATASSEELRRFVLDHLSAHPAVASTETILIFEHVRPRHRAPRTEQSSGR”, the “soluble on expression in E. coli” value was “soluble”.

In the case of “MSLGETAGKLPRKPTLGPETAGATLVIPGETDRLASLYARAQAEGGKVVLWAGGDAPNQMDWLKTAFESRFPGVTLDVTVDLSKFHDLRIDQELAAGTLTPDVAMLQTTFDFDKWKARDVLLRYKPVGFARQKKGYADPDGAYVTAYNNAFVPTYASVRLPAERYPTRFADYLKPAFKGKLVLTYPHDDDAVLYVYDKLERRYGSGFLRALAAQKPNFLRGTAAPAASVGADSIGSLGNLTGYATDSDTPAGYFIPTDEPFIVWNQRAAIFKAARHPATAKLLLSYLGSAEFQSSYGGWRARADVGEAPGLPPLESLKNVDVHDFTRWMTDRQRVASLRRHMAEIFGPVRGESPLRDPALMSLLGLTANDIVALPEPDLPIYEGHHHHHH”, the “soluble on expression in E. coli” value is recorded as “soluble”.

As for “SRMNPTIMVPGSEATQERFNETLASLNKQGKKHSILKLTVHKDNSISYSGQIAASDNRPYIVVAFADNKDSYTTIKKQAKWLDHALDELQKKYHFKNFNAIGHSNGGLDWTVYLENYYAKENFHLNTLMTIGTPYNFEVVNSSNHTQMLQDLIAAKDALPDDLTVYNVAGTNSYDGDYIVPITSVETGKYIFQKTIKQYTQITVTGNEAEHSDLPTNKEVLDLISENILNNNRKKVDPKNQN”, the “soluble on expression in E. coli” value is recorded as “not soluble”.

As to “MSQFTHYPPVSDKQLGFFIDSSRCSGCKACQVACKDKNNLEVGRRFRRVYEVKGGSFIPTGQGGVSNNVFAYTLSISCNHCADPVCTKNCPTTAMHKRPGDGIVRVDTDKCVGCGYCAWSCPYGAPQLNEQTGQMSKCDMCVDLLAKGEPPVCVATCPLEAIKFGPIDELRAKYGSVCDVNGLPDSSITKPNLVVKAHQGAEKEGKRHA”, the “soluble on expression in E. coli” value was “not soluble”.

Turning to “AGFMVPTTNTAGWGRAMAGGSLFPNDPSAAFNNPAAMAFIDKRIAQLTVNYADIDIKYNGDAYDYQGNPMTGGYQDGPGTPELGTNDGGQAGFGAWLPTGFLVVPINDRFAFGLSQVVPMGMRSTWDPNWKGRDFAVDTKIETIGLTGSLSFKVNDNFSLGAGVIIQRTSGFVSQNLDLYASAANSPGMGGIPFPASNSSALMRVKVDNTSPGFFAGAVWKPTDRDTLGFAYHAKIRNKLKGHYNLYDHDGGLTEGAIEGGTPGLAYPGLDLRMGASASARLDIPAYASLDWVHQFNDRLSLGASATWTEWSSFQDLTLKSHGNTIVSIPYTYRNTWTLAVGGDYKVTDQWTMRAGVAYDQTPTHNATRDPRIPDGDRYFASLGAGYRFQSMPELSIDAAYSRQFVKEVPLKTVNQDRLGGGRLDGRATSKGQVFSLSATYDFHHHHHHHH”, the “soluble on expression in E. coli” value is listed as “soluble”.

On to “MGSDKIHHHHHHMDEFDYVRRKLIERILHLTEKQPVVRPLPGLTVGRRESPTEPSTYILPPSICIAVQGAKRVLIGEEYYVYDVENFLLNSFDVPVVAQVIEASKEKPYIGMTWEIDMEILMEIVVEQKLNTRPITSSRGTSLGKVTHQLLDAFRRMLELLDEPEHISALLPVIKKEIIYRLLVSEQGPRLIQIALSGKNDVITALNYLKEHFNESVNMKRLAEMVGMSVSTFYQNFKILTGMTPLQYQKKLRLCEARKLLMAGSDVTTAAYQVGYESLSQFSREYKRFFGVSPSQDAKKLKEEPYTRILY”, for which the “soluble on expression in E. coli” value was “not soluble”.

Regarding “MGSDKIHHHHHHMAQIIAVHSFRGGTGKSNLIANMAATMALQGQRVGIIDTDIQSPGIHVIFGINENKMERTLNDYLWGYCNIKDAAYDVTEALAIEQGNTSTVKGSLHLVPCSIKASEIARVLREGYDVVRLNDGFQEFIRSLKLDYLLIDTHPGLNEETLLSIGISNVLVILLRPDHQDFQGTAVTVDVARKLKVPKMLLVINKVLPSLNFLDLQQQVEKIYNAPVVGILPLSEDMVQLASKGLFSLRYPQHPISQTIKGITNQIASLVVSH”, the “soluble on expression in E. coli” value is recorded as “not soluble”.

These data come from the DeepSol protein solubility set.
